Laboratory results as given in paper PMC12867014, “Angiopoietin-like 3 monomers are abundant in human plasma but are unable to inhibit endothelial lipase” (JCI Insight, 2025).

Key:
[1] = target: ANGPTL3 of human serum (human (endogenous in serum)); experiment: SEC; Superdex 200 of pooled human serum, alone or spiked with conditioned media of recombinant wild-type or L124A human ANGPTL3 (L124A also run without serum); total ANGPTL3, trimeric ANGPTL3 and ANGPTL3/8 complexes in the fractions measured by dedicated immunoassays
[2] = target: Strep-tagged mouse ANGPTL3 (angiopoietin-like 3), wild-type (mouse); experiment: mass photometry; Refeyn TwoMP, ambient temperature, DPBS; ANGPTL3 purified from conditioned media by Strep-TactinXT affinity chromatography
[3] = target: Strep-tagged mouse ANGPTL3 (angiopoietin-like 3), wild-type (mouse); experiment: native gel or EMSA; blue NativePAGE (Bis-Tris 3-12% gels, run at room temperature) of conditioned media, immunoblot with an antibody against ANGPTL3
[4] = target: endogenous ANGPTL3 secreted from Huh7 cells (human (endogenous in Huh7)); experiment: as above
[5] = target: mouse ANGPTL3 S220A-R221A (cleavage-resistant) (mouse); experiment: mass photometry; Refeyn TwoMP, ambient temperature, DPBS; ANGPTL3 purified from conditioned media by Strep-TactinXT affinity chromatography
[6] = target: mouse ANGPTL3 S220A-R221A (cleavage-resistant) (mouse); experiment: native gel or EMSA; blue NativePAGE (Bis-Tris 3-12% gels, run at room temperature) of conditioned media, immunoblot with an antibody against ANGPTL3
[7] = Western blot of conditioned media; settings: glycan lost; control: wild type
[8] = target: the molecule itself; experiment: SEC; Superdex 200 of pooled human serum, alone or spiked with conditioned media of recombinant wild-type or L124A human ANGPTL3 (L124A also run without serum); total ANGPTL3, trimeric ANGPTL3 and ANGPTL3/8 complexes in the fractions measured by dedicated immunoassays

ANGPTL3 of human serum (natural protein)
stoichiometry N [1]: 3

Strep-tagged mouse ANGPTL3 (angiopoietin-like 3), wild-type (natural protein)
percent present as homotrimer [2]: 58% | stoichiometry N [2]: 3 | stoichiometry N [3]: 3

endogenous ANGPTL3 secreted from Huh7 cells (natural protein)
stoichiometry N [4]: 3

mouse ANGPTL3 S220A-R221A (cleavage-resistant) (natural protein)
stoichiometry N [5]: 3 | stoichiometry N [6]: 3

B1: ANGPTL3: M116A-S117A (protein)
parent chain: MHTIKLFLFVVPLVIASRVDPDLSSFDSAPSEPKSRFAMLDDVKILANGLLQLGHGLKDFVHKTKGQINDIFQKLNIFDQSFYDLSLRTNEIKEEEKELRRTTSTLQVKNEEVKNMSVELNSKLESLLEEKTALQHKVRALEEQLTNLILSPAGAQEHPEVTSLKSFVEQQDNSIRELLQSVEEQYKQLSQQHMQIKEIEKQLRKTGIQEPSENSLSSKSRAPRTTPPLQLNETENTEQDDLPADCSAVYNRGEHTSGVYTIKPRNSQGFNVYCDTQSGSPWTLIQHRKDGSQDFNETWENYEKGFGRLDGEFWLGLEKIYAIVQQSNYILRLELQDWKDSKHYVEYSFHLGSHETNYTLHVAEIAGNIPGALPEHTDLMFSTWNHRAKGQLYCPESYSGGWWWNDICGENNLNGKYNKPRTKSRPERRRGIYWRPQSRKLYAIKSSKMMLQPTT
expression_or_secretion [7]: no change

B2: recombinant wild-type human ANGPTL3 (His-tagged) (natural protein, UniProt Q9Y5C1 17-460, looked up)
chain: SRIDQDNSSFDSLSPEPKSRFAMLDDVKILANGLLQLGHGLKDFVHKTKGQINDIFQKLNIFDQSFYDLSLQTSEIKEEEKELRRTTYKLQVKNEEVKNMSLELNSKLESLLEEKILLQQKVKYLEEQLTNLIQNQPETPEHPEVTSLKTFVEKQDNSIKDLLQTVEDQYKQLNQQHSQIKEIENQLRRTSIQEPTEISLSSKPRAPRTTPFLQLNEIRNVKHDGIPAECTTIYNRGEHTSGMYAIRPSNSQVFHVYCDVISGSPWTLIQHRIDGSQNFNETWENYKYGFGRLDGEFWLGLEKIYSIVKQSNYVLRIELEDWKDNKHYIEYSFYLGNHETNYTLHLVAITGNVPNAIPENKDLVFSTWDHKAKGHFNCPEGYSGGWWWHDECGENNLNGKYNKPRAKSKPERRRGLSWKSQNGRLYSIKSTKMLIHPTDSESFE
notes: angiopoietin-like 3 (ANGPTL3), human, secreted into the medium; also called WT human ANGPTL3; wild-type trimeric ANGPTL3; source: HEK293T, transient transfection (Fugene6), conditioned media
stoichiometry N [8]: 3
